Article PMC2233751 (The Journal of General Physiology, 2001)

Biological target: actin filaments (UniProt P68135 1-377)
Assay: co-sedimentation

Kd: 10 µM
B1: myosin V 1IQ monomer (domain or fragment)
chain: MAASELYTKYARVWIPDPEEVWKSAELLKDYKPGDKVLQLRLEEGKDLEYCLDPKTKELPPLRNPDILVGENDLTALSYLHEPAVLHNLKVRFIDSKLIYTYCGIVLVAINPYEQLPIYGEDIINAYSGQNMGDMDPHIFAVAEEAYKQMARDERNQSIIVSGESGAGKTVSAKYAMRYFATVSGSASEANVEEKVLASNPIMESIGNAKTTRNDNSSRFGKYIEIGFDKRYRIIGANMRTYLLEKSRVVFQAEEERNYHIFYQLCASAALPEFKTLRLGNANYFHYTKQGGSPVIDGIDDAKEMVNTRQACTLLGISDSYQMGIFRILAGILHLGNVEFASRDSDSCAIPPKHDPLTIFCDLMGVDYEEMAHWLCHRKLATATETYIKPISKLHAINARDALAKHIYANLFNWIVDHVNKALHSTVKQHSFIGVLDIYGFETFEINSFEQFCINYANEKLQQQFNMHVFKLEQEEYMKEQIPWTLIDFYDNQPCINLIEAKMGVLDLLDEECKMPKGSDDTWAQKLYNTHLNKCALFEKPRLSNKAFIIKHFADKVEYQCEGFLEKNKDTVYEEQIKVLKSSKKFKLLPELFQDEEKAISPTSATPSGRVPLSRTPVKPAKARPGQTSKEHKKTVGHQFRNSLHLLMETLNATTPHYVRCIKPNDFKFPFTFDEKRAVQQLRACGVLETIRISAAGFPSRWTYQEFFSRYRVLMKQKDVLSDRKQTCKNVLEKLILDKDKYQFGKTKIFFRAGQVAYLEKIRADKLRAACIRIQKTIRGWLMRKKYMRMRR
